Starred links: 1 amine or outer side, 2 acyl side, 3 side chain; linkers in the order of their positions; H or OH if unused. Non-standard residues stand in square brackets, D forms with d. Groups on a side chain read outwards from the residue. No end group written: not given here. *: point of attachment. C16 diacid = O=C(O)CCCCCCCCCCCCCCC(=O)*; C15 diacid = O=C(O)CCCCCCCCCCCCCC(=O)*; γGlu = O=C(O)[C@H](CCC(=O)[*:2])N[*:1]; NMeY = CN[C@@H](Cc1ccc(O)cc1)C(=O)O; AEEA = NCCOCCOCC(=O)O; Aib = CC(C)(N)C(=O)O

The target in experiment [1] is human plasma proteins. Description: plasma protein binding, ultracentrifugation of spiked plasma, LC-MS/MS.
Another experiment deals with dog plasma proteins. The experiment is described as above.
Experiment [2] has as its target human plasma proteins. Nature of the experiment: plasma protein binding; spiked human plasma, ultracentrifugation, LC-MS/MS.

B1: Compound 21 (peptide)
peptide: [NMeY][Aib]EGTFISDYSI[Aib]LDR[Aib]AQ[Aib]NFVNWLLAQK([AEEA-AEEA-γGlu-γGlu-C15 diacid])PSSGAPPPS-NH2
modifications: N-terminus assumed
SMILES: CC[C@H](C)[C@H](NC(=O)[C@H](Cc1ccccc1)NC(=O)[C@@H](NC(=O)CNC(=O)[C@H](CCC(=O)O)NC(=O)C(C)(C)NC(=O)[C@H](Cc1ccc(O)cc1)NC)[C@@H](C)O)C(=O)N[C@@H](CO)C(=O)N[C@@H](CC(=O)O)C(=O)N[C@@H](Cc1ccc(O)cc1)C(=O)N[C@@H](CO)C(=O)N[C@H](C(=O)NC(C)(C)C(=O)N[C@@H](CC(C)C)C(=O)N[C@@H](CC(=O)O)C(=O)N[C@@H](CCCNC(=N)N)C(=O)NC(C)(C)C(=O)N[C@@H](C)C(=O)N[C@@H](CCC(N)=O)C(=O)NC(C)(C)C(=O)N[C@@H](CC(N)=O)C(=O)N[C@@H](Cc1ccccc1)C(=O)N[C@H](C(=O)N[C@@H](CC(N)=O)C(=O)N[C@@H](Cc1c[nH]c2ccccc12)C(=O)N[C@@H](CC(C)C)C(=O)N[C@@H](CC(C)C)C(=O)N[C@@H](C)C(=O)N[C@@H](CCC(N)=O)C(=O)N[C@@H](CCCCNC(=O)COCCOCCNC(=O)COCCOCCNC(=O)CC[C@H](NC(=O)CC[C@H](NC(=O)CCCCCCCCCCCCCC(=O)O)C(=O)O)C(=O)O)C(=O)N1CCC[C@H]1C(=O)N[C@@H](CO)C(=O)N[C@@H](CO)C(=O)NCC(=O)N[C@@H](C)C(=O)N1CCC[C@H]1C(=O)N1CCC[C@H]1C(=O)N1CCC[C@H]1C(=O)N[C@@H](CO)C(N)=O)C(C)C)[C@@H](C)CC
B1: in the experiment with human plasma proteins [1], the Human PPB (Fu,plasma), fraction unbound (fraction unbound) worked out at 0.0414. For the same molecule, the Dog PPB (Fu,plasma), fraction unbound (fraction unbound) with dog plasma proteins is 0.037.

On to [NMeY][Aib]EGTFISDYSI[Aib]LDRK([AEEA-AEEA-γGlu-γGlu-C15 diacid])AQ[Aib]NFVNWLLAQRPSSGAPPPS-NH2 (not fully specified (N-terminus)) [Compound 20], for which the Human PPB (Fu,plasma), fraction unbound (fraction unbound) with human plasma proteins [1] is 0.0013. In the experiment with dog plasma proteins, the Dog PPB (Fu,plasma), fraction unbound (fraction unbound) worked out at 0.0021. This molecule registered a percent of unbound drug in plasma with human plasma proteins [2] of 0.1%.

B2: Compound 18 (peptide)
peptide: [NMeY][Aib]EGTFISDYSIAK([γGlu-γGlu-γGlu-C15 diacid])DR[Aib]AQ[Aib]NFVNWLLAQSPSSGAPPPS-NH2
modifications: N-terminus assumed
SMILES: CC[C@H](C)[C@H](NC(=O)[C@H](CO)NC(=O)[C@H](Cc1ccc(O)cc1)NC(=O)[C@H](CC(=O)O)NC(=O)[C@H](CO)NC(=O)[C@@H](NC(=O)[C@H](Cc1ccccc1)NC(=O)[C@@H](NC(=O)CNC(=O)[C@H](CCC(=O)O)NC(=O)C(C)(C)NC(=O)[C@H](Cc1ccc(O)cc1)NC)[C@@H](C)O)[C@@H](C)CC)C(=O)N[C@@H](C)C(=O)N[C@@H](CCCCNC(=O)CC[C@H](NC(=O)CC[C@H](NC(=O)CC[C@H](NC(=O)CCCCCCCCCCCCCC(=O)O)C(=O)O)C(=O)O)C(=O)O)C(=O)N[C@@H](CC(=O)O)C(=O)N[C@@H](CCCNC(=N)N)C(=O)NC(C)(C)C(=O)N[C@@H](C)C(=O)N[C@@H](CCC(N)=O)C(=O)NC(C)(C)C(=O)N[C@@H](CC(N)=O)C(=O)N[C@@H](Cc1ccccc1)C(=O)N[C@H](C(=O)N[C@@H](CC(N)=O)C(=O)N[C@@H](Cc1c[nH]c2ccccc12)C(=O)N[C@@H](CC(C)C)C(=O)N[C@@H](CC(C)C)C(=O)N[C@@H](C)C(=O)N[C@@H](CCC(N)=O)C(=O)N[C@@H](CO)C(=O)N1CCC[C@H]1C(=O)N[C@@H](CO)C(=O)N[C@@H](CO)C(=O)NCC(=O)N[C@@H](C)C(=O)N1CCC[C@H]1C(=O)N1CCC[C@H]1C(=O)N1CCC[C@H]1C(=O)N[C@@H](CO)C(N)=O)C(C)C
Take B2: in the experiment with human plasma proteins [1], the Human PPB (Fu,plasma), fraction unbound (fraction unbound) is 0.0588. This molecule also had a Dog PPB (Fu,plasma), fraction unbound (fraction unbound) with dog plasma proteins of 0.0517.

B3: Compound 23 (peptide)
peptide: [NMeY][Aib]EGTFISDYSIAK([AEEA-γGlu-γGlu-γGlu-C15 diacid])DR[Aib]AQ[Aib]NFVNWLLAQK-NH2
modifications: N-terminus assumed
SMILES: CC[C@H](C)[C@H](NC(=O)[C@H](CO)NC(=O)[C@H](Cc1ccc(O)cc1)NC(=O)[C@H](CC(=O)O)NC(=O)[C@H](CO)NC(=O)[C@@H](NC(=O)[C@H](Cc1ccccc1)NC(=O)[C@@H](NC(=O)CNC(=O)[C@H](CCC(=O)O)NC(=O)C(C)(C)NC(=O)[C@H](Cc1ccc(O)cc1)NC)[C@@H](C)O)[C@@H](C)CC)C(=O)N[C@@H](C)C(=O)N[C@@H](CCCCNC(=O)COCCOCCNC(=O)CC[C@H](NC(=O)CC[C@H](NC(=O)CC[C@H](NC(=O)CCCCCCCCCCCCCC(=O)O)C(=O)O)C(=O)O)C(=O)O)C(=O)N[C@@H](CC(=O)O)C(=O)N[C@@H](CCCNC(=N)N)C(=O)NC(C)(C)C(=O)N[C@@H](C)C(=O)N[C@@H](CCC(N)=O)C(=O)NC(C)(C)C(=O)N[C@@H](CC(N)=O)C(=O)N[C@@H](Cc1ccccc1)C(=O)N[C@H](C(=O)N[C@@H](CC(N)=O)C(=O)N[C@@H](Cc1c[nH]c2ccccc12)C(=O)N[C@@H](CC(C)C)C(=O)N[C@@H](CC(C)C)C(=O)N[C@@H](C)C(=O)N[C@@H](CCC(N)=O)C(=O)N[C@@H](CCCCN)C(N)=O)C(C)C
Regarding B3, in the experiment with human plasma proteins [1], the Human PPB (Fu,plasma), fraction unbound (fraction unbound) amounted to 0.0734. In addition, in the experiment with human plasma proteins [2], the percent of unbound drug in plasma came to 7.3% and the proportion of the drug being bound amounted to 92.7%.

In the experiment with human plasma proteins [1], [NMeY][Aib]EGTFISDYSIALDR[Aib]K([AEEA-AEEA-γGlu-γGlu-C16 diacid])Q[Aib]NFVNWLLAQSPSSGAPPPS-NH2 [Compound 119] showed a Human PPB (Fu,plasma), fraction unbound (fraction unbound) of 0.0185. Further, the Dog PPB (Fu,plasma), fraction unbound (fraction unbound) with dog plasma proteins is 0.0105.

B4: Compound 19 (peptide)
peptide: [NMeY][Aib]EGTFISDYSI[Aib]K([AEEA-AEEA-γGlu-γGlu-C15 diacid])DR[Aib]AQ[Aib]NFVNWLLAQRPSSGAPPPS-NH2
modifications: N-terminus assumed
SMILES: CC[C@H](C)[C@H](NC(=O)[C@H](Cc1ccccc1)NC(=O)[C@@H](NC(=O)CNC(=O)[C@H](CCC(=O)O)NC(=O)C(C)(C)NC(=O)[C@H](Cc1ccc(O)cc1)NC)[C@@H](C)O)C(=O)N[C@@H](CO)C(=O)N[C@@H](CC(=O)O)C(=O)N[C@@H](Cc1ccc(O)cc1)C(=O)N[C@@H](CO)C(=O)N[C@H](C(=O)NC(C)(C)C(=O)N[C@@H](CCCCNC(=O)COCCOCCNC(=O)COCCOCCNC(=O)CC[C@H](NC(=O)CC[C@H](NC(=O)CCCCCCCCCCCCCC(=O)O)C(=O)O)C(=O)O)C(=O)N[C@@H](CC(=O)O)C(=O)N[C@@H](CCCNC(=N)N)C(=O)NC(C)(C)C(=O)N[C@@H](C)C(=O)N[C@@H](CCC(N)=O)C(=O)NC(C)(C)C(=O)N[C@@H](CC(N)=O)C(=O)N[C@@H](Cc1ccccc1)C(=O)N[C@H](C(=O)N[C@@H](CC(N)=O)C(=O)N[C@@H](Cc1c[nH]c2ccccc12)C(=O)N[C@@H](CC(C)C)C(=O)N[C@@H](CC(C)C)C(=O)N[C@@H](C)C(=O)N[C@@H](CCC(N)=O)C(=O)N[C@@H](CCCNC(=N)N)C(=O)N1CCC[C@H]1C(=O)N[C@@H](CO)C(=O)N[C@@H](CO)C(=O)NCC(=O)N[C@@H](C)C(=O)N1CCC[C@H]1C(=O)N1CCC[C@H]1C(=O)N1CCC[C@H]1C(=O)N[C@@H](CO)C(N)=O)C(C)C)[C@@H](C)CC
For B4, the Human PPB (Fu,plasma), fraction unbound (fraction unbound) with human plasma proteins [1] is 0.0321. In addition, in the experiment with dog plasma proteins, the Dog PPB (Fu,plasma), fraction unbound (fraction unbound) was 0.0361.

With [NMeY][Aib]EGTFISDYSIAK([AEEA-AEEA-γGlu-γGlu-C15 diacid])DR[Aib]AQ[Aib]NFVNWLLAQS [Compound 16], in the experiment with human plasma proteins [1], the Human PPB (Fu,plasma), fraction unbound (fraction unbound) amounted to 0.0441. Also, in the experiment with dog plasma proteins, the Dog PPB (Fu,plasma), fraction unbound (fraction unbound) is 0.0151.

The record behind these values is US20220227830A1, “QD DOSING OF GIP RECEPTOR AGONIST PEPTIDE COMPOUNDS AND USES THEREOF” (Takeda Pharmaceutical Company Limited, priority 2020, published 2022).
